The source of these data is article PMC11698047, “The dual Ras-association domains of Drosophila Canoe have differential roles in linking cell junctions to the cytoskeleton during morphogenesis” (Journal of Cell Science, 2024).

Several values for one entry are separate records, joined by “and”; a condition that tells them apart may be missing. Equal values may be shown once.

B1: Drosophila melanogaster Canoe RA1 domain (amino acids 1-137, including the αN helix) (domain or fragment, UniProt Q24279 1-137, looked up)
chain: MSHDKKMLDREAVRSVIQQWNANRLDLFALSEPDENLLFHGVMRFYFQDAGQKVATKCIRVASDATVTDVIDTLIEKFRPDMRMLSVPNYALYEVHANGEERRLNADEKPLLVQLNWHIDDREGRFLLKNIDQKTTP
notes: Canoe (Cno), Drosophila melanogaster, RA1 domain with its N-terminal αN helix, amino acids 1-137; The methods say that some RA1 preparations were purified without thrombin treatment; also called Cno RA1; source: E. coli BL21 DE3 pLysS, purified (Ni-NTA, thrombin cleavage, benzamidine sepharose, second Ni-NTA); not shown: His6, N-terminal, cleaved
B2: Drosophila melanogaster GTPase Rap1G12V (amino acids 1-180), GMPPNP-loaded (enzyme, UniProt P08645 1-180, looked up)
chain: MREYKIVVLGSVGVGKSALTVQFVQCIFVEKYDPTIEDSYRKQVEVDGQQCMLEILDTAGTEQFTAMRDLYMKNGQGFVLVYSITAQSTFNDLQDLREQILRVKDTDDVPMVLVGNKCDLEEERVVGKELGKNLATQFNCAFMETSAKAKVNVNDIFYDLVRQINKKSPEKKQKKPKKSL
notes: Rap1 GTPase, Drosophila melanogaster, amino acids 1-180, constitutively active G12V mutant; Loaded with the non-hydrolysable nucleotide GMPPNP and Mg2+ (formula mass 21.0 kDa); Cloned NdeI/EcoRI in pET28; a few vector residues probably remain at the N-terminus after thrombin cleavage (surmised); also called Rap1-GMPPNP; Rap1G12V-GMPPNP; source: E. coli BL21 DE3 pLysS, purified (Ni-NTA, thrombin …)
B3: Drosophila melanogaster Canoe RA2 domain (amino acids 222-350, including the αN helix), with His-tag (domain or fragment, UniProt Q24279 222-350, looked up)
chain: TRSISNPEAVMRRRRQQKLEKKLQQFRSRDGGPDTGGTLKIYGESLCQDVPYKTLLLSIRDCAQAVVREMLTKYGLEKADPLHYCLVQVNSDGTEYILDDDECPLSILMNHPTSRGSIMFHVRRRPADS
notes: Canoe (Cno), Drosophila melanogaster, RA2 domain with its N-terminal αN helix, amino acids 222-350; Cloned NdeI/EcoRI in pET28; also called Cno RA2; RA2 with His-tag; source: E. coli BL21 DE3 pLysS, purified (Ni-NTA, without thrombin treatment); not shown: His6, N-terminal, kept

Conditions in all cases: both partners purified
For experiment [1], the target named is B2. Nature of the experiment: ITC; GMPPNP-loaded Rap1G12V (150-670 µM for RA1; 650-1200 µM for RA2) injected into the cell with RA1 (20-50 µM) or RA2 (42-80 µM); 25°C, buffer C (25 mM HEPES-NaOH pH 7.5, 100 mM NaCl, 5 mM MgCl2, 0.1% β-ME); one-site binding model.
Experiment [2] deals with B3. Described as above.
In experiment [3] the target is B1. The description is as above.
Experiment [4] addresses B1. Briefly: SEC-MALS; 100 µl of individual proteins (200 µM) or RA domain-Rap1G12V-GMPPNP complexes (200 µM complex) on Superdex 200, 0.5 ml/min, buffer C (25 mM HEPES-NaOH pH 7.5, 100 mM NaCl, 5 mM MgCl2, 0.1% β-ME) with 0.2 g/l sodium azide; in duplicate.

Consider B1, for which, in experiment [1], the equilibrium dissociation constant (Kd) was 4.5 µM and 5.9 µM.
Regarding B2, the dH was -3.07 kcal/mol and -2.18 kcal/mol and -2.72 kcal/mol in experiment [2]; -4.38 kcal/mol and -4.79 kcal/mol in experiment [3]. Also, the “stoichiometry N” value was 0.755 and 0.73 and 0.63 in experiment [2]; 0.717 in experiment [3]; 1 in experiment [4].
B3: the Kd in experiment [1] was 8.8 µM and 7.9 µM and 8.7 µM.
